In article doi:10.1101/2022.06.16.496122:

Molecular target: Trypanosoma brucei ADAT3 (full-length, His-tagged) (Trypanosoma brucei)
Assay: cryo-EM structure

Q: How did the stoichiometry N turn out when “Trypanosoma brucei ADAT2 (full-length, A87G/C117S) (enzyme)” was run?
A: Its stoichiometry N is 1.
